Consider seven substances from patent US8716221B2, “Modified exendins and uses thereof” (priority 2005, dated 2014).

Read-outs that look alike come from different tables or passages of the source. Where no end group is shown, it is not given here. [ ]: non-standard residue; d: D form. code ∗ = not defined here

Series [1] is described as follows: Test for the stability of the polypeptide (LC-MS purity, pH 8.0, 40° C.). It is filed as physicochemical. The note with it: for Purity (%) 0 day: 4 mg/ml. As for the experimental part: The following method was used to determine the chemical stability of some polypeptides in the present invention.
(§1) 1 mg of each sample was dissolved in a buffer solution, which contains 150 mM sodium chloride and 20 mM phosphate, from which a solution of concentration of 4 mg/ml was prepared and its pH is 8.0. The testing sample solutions were placed in a thermostat of 40° C. LC-MS was used to determine the purity of polypeptide. Correlation between the reduction ratio of the main peak area and time reflects the chemical stability of the polypeptide. Expressed as a percentage, purity is the percentage corresponding to the target peak in the total of all peaks including impurities. Using LC, the main peak was separated from any impurities, and the relative percentages of main peak and impurities at times 0 (before incubation at 40° C. at pH 4.5-8) and after 5, 10 and 15 days were determined. MS was used to identify the main peak as the target molecule. The main peak area plus the peak areas of any impurities gives a total equal to 100%, with relative purity calculated at a certain time (5, 10 or 15 days) against the purity at time 0 compared to the purity before incubation at 40° C. at pH 4.5-8.

Series [2] is classed as physicochemical. The note with it: for 0 day Purity (%) / 5 days Purity (%) / 5 days Relative Purity (%) / 10 days Purity (%) / 10 days Relative Purity (%) / 15 days Purity (%) / 15 days Relative Purity (%): pH 4.5, 40° C.; for 5 days Relative Purity (%) / 10 days Relative Purity (%) / 15 days Relative Purity (%): compared with the corresponding sample at 0 day. As for the experimental part: as §1
(§2) The following method was used to determine the chemical stability of various modified exendins having a sequence identity of at least 90% to SEQ ID no. 17 under acidic/basic conditions. […] Purity was determined by LC-MS as percentage of the target peak in the total of all peaks including impurities as described in example 3.
4 mg Exendin-4 derivative polypeptide (described in Table 2 below) was dissolved in 20 mM sodium buffer (pH 4.5) so as to prepare a solution at concentration of 4 mg/ml. The testing sample solutions were placed in a thermostat setting at 40° C. LC-MS was used to determine the purity of polypeptide. The chemical stability of the polypeptide was expressed as the correlation between the reduction ratio of the main peak area and time and determined as described above.

A short description of series [3]: Stability of Exendin-4 derivatives under basic conditions (PBS pH 7.4, 40° C., LC-MS purity). It is filed as physicochemical. As to conditions: for 5 days Relative Purity (%) / 10 days Relative Purity (%): compared with the corresponding sample at 0 day. As to the method: as §1, §2
4 mg Exendin-4 derivative polypeptide (described in Table 3 above) was taken and dissolved in PBS buffer (KH2PO4 0.27 g/L, Na2HPO4 1.42 g/L, NaCl 8 g/L and KCl 0.2 g/L, pH 7.4) so as to prepare a solution at concentration of 4 mg/ml. The testing sample solutions were placed in a thermostat setting at 40° C. LC-MS was used to determine the purity of polypeptide. The chemical stability of the polypeptide was expressed as the correlation between the reduction ratio of the main peak area and time.

In a further series the test system is normal mice. Description: Oral glucose tolerance test in normal mice after subcutaneous injection. As to conditions: unit not given. It is filed as in vivo. From the text:
Polypeptide of SEQ ID NO: 25 was modified with polyethylene glycol of molecular weight of about 40,000 (sample 4 as described in Examples 3 and 4 above).

[4] abbreviates: first day after s.c. injection, dosage (20).
The mark [5] stands for this setting: first day after s.c. injection, dosage (80).
The mark [6] stands for this setting: third day after s.c. injection, dosage (20).
The mark [7] stands for this setting: third day after s.c. injection, dosage (80).

As to “HdAEGTFTSDL SKQMEEEAVR LFIEWLKNGG PSSGAPPPC-NH2 [Sample 2-1]”, in series [1], the “stability of the polypeptide (conclusion in words)” value was “not very stable”, the “Purity (%) 0 day” value turned out to be 98%, the “Purity (%) 5th day” value worked out at 93.1% and the “Purity (%) 10th day” value amounted to 90.4%. The “Purity (%) 15th day” value in series [1] turned out to be 88.2%. In series [2], the “0 day Purity (%)” value is on record as 98.0%, the “5 days Purity (%)” value worked out at 93.8%, the “5 days Relative Purity (%)” value worked out at 95.71% and the “10 days Purity (%)” value came to 89.6%. Besides, in series [2], the “10 days Relative Purity (%)” value stood at 91.43%, the “15 days Purity (%)” value is given as 86.7% and the “15 days Relative Purity (%)” value is 88.47%. The main impurity entry in series [2] (stability test, cysteine at C-terminal end) is “dimers formed by oxidization of the mercapto-groups”.
Consider “HdAEGTFTTSDL SKQNleEEEAVR LFIEWLKQGG PSSGAPPPC-PEG40K [Sample 13]”, for which, in series [3], the “0 day Purity (%)” value is reported as 99.8%, the “5 days Purity (%)” value stood at 99.3%, the “5 days Relative Purity (%)” value was 99.50% and the “10 days Purity (%)” value is given as 98.9%. Besides, the “10 days Relative Purity (%)” value in series [3] is 99.10%. In addition, in series [2], the “stability compared with samples 2-1 and 9-1” value is reported as “even higher stability”; the “0 day Purity (%)” value stood at 99.8%; the “5 days Purity (%)” value came to 99.6%; the “5 days Relative Purity (%)” value came out at 99.80%. Also, in series [2], the “10 days Purity (%)” value worked out at 99.7%, the “10 days Relative Purity (%)” value is recorded as 99.90%, the “15 days Purity (%)” value was 99.5% and the “15 days Relative Purity (%)” value is reported as 99.70%.
Turning to “HdAEGTFTSDL SKQMEEEAVR LFIEWLKNGG PSSGAPPPC-PEG40K [Sample 4]”, in series [1], the “stability of the polypeptide (conclusion in words)” value was “very stable”, the “Purity (%) 0 day” value was 99.7%, the “Purity (%) 5th day” value was 99.4% and the “Purity (%) 10th day” value came to 99.0%. In series [1], the “Purity (%) 15th day” value was 99.3%. Moreover, in series [3], the “0 day Purity (%)” value worked out at 99.7%, the “5 days Purity (%)” value came to 99.0%, the “5 days Relative Purity (%)” value was 99.30% and the “10 days Purity (%)” value is on record as 98.2%. Also, in series [3], the “10 days Relative Purity (%)” value is 98.50%. Also, in the series on normal mice (setting [4]), the “AUC (area under the curve of the blood glucose level)” value (“AUC” for short) was 176.4 ± 22.0 mg·h/dL, the “Blood Glucose level 0 min” value was found to be 116.6 ± 10.8 mg/dL, the “Blood Glucose level 30 min” value was 95.7 ± 9.9 mg/dL and the “Blood Glucose level 60 min” value was found to be 88.9 ± 28.6 mg/dL. Besides, the “Blood Glucose level 120 min” value in the series on normal mice (setting [4]) came to 65.4 ± 5.1 mg/dL. Further, in the series on normal mice (setting [5]), the “AUC” value was 166.6 ± 16.7 mg·h/dL, the “Blood Glucose level 0 min” value turned out to be 122.2 ± 9.1 mg/dL, the “Blood Glucose level 30 min” value worked out at 92.1 ± 12.4 mg/dL and the “Blood Glucose level 60 min” value stood at 76.7 ± 8.7 mg/dL. Besides, in the series on normal mice (setting [5]), the “Blood Glucose level 120 min” value came to 64.9 ± 7.5 mg/dL. Moreover, in the series on normal mice (setting [6]), the “AUC” value stood at 253.6 ± 24.4 mg·h/dL, the “Blood Glucose level 0 min” value was found to be 96.2 ± 8.6 mg/dL, the “Blood Glucose level 30 min” value worked out at 172.8 ± 33.2 mg/dL and the “Blood Glucose level 60 min” value came to 132.1 ± 12.4 mg/dL. For the same substance, the “Blood Glucose level 120 min” value in the series on normal mice (setting [6]) was 88.3 ± 7.8 mg/dL. In the series with normal mice (setting [7]), the “AUC” value is 217.0 ± 21.9 mg·h/dL, the “Blood Glucose level 0 min” value came out at 89.5 ± 9.3 mg/dL, the “Blood Glucose level 30 min” value amounted to 149.3 ± 32.4 mg/dL and the “Blood Glucose level 60 min” value came out at 108.6 ± 8.8 mg/dL. Moreover, the “Blood Glucose level 120 min” value with normal mice (setting [7]) is 77.1 ± 8.4 mg/dL. Besides, in series [2], the “stability compared with samples 2-1 and 9-1” value is “even higher stability”; the “0 day Purity (%)” value was determined as 99.7%; the “5 days Purity (%)” value was 99.4%; the “5 days Relative Purity (%)” value was found to be 99.70%. In series [2], the “10 days Purity (%)” value came out at 99.3%, the “10 days Relative Purity (%)” value was determined as 99.60%, the “15 days Purity (%)” value came to 99.0% and the “15 days Relative Purity (%)” value came out at 99.30%.
On to “HGEGTFTSDLSKQMEEEAVRLFIEWLKQGGPSSGAPPPK* [Sample 5]”, for which, in series [3], the “0 day Purity (%)” value is 98.3%, the “5 days Purity (%)” value is 95.7%, the “5 days Relative Purity (%)” value is reported as 97.36% and the “10 days Purity (%)” value came out at 94.2%. Further, the “10 days Relative Purity (%)” value in series [3] came to 95.83%. For the same substance, in series [2], the “0 day Purity (%)” value turned out to be 98.3%, the “5 days Purity (%)” value is 96.3%, the “5 days Relative Purity (%)” value is given as 97.97% and the “10 days Purity (%)” value was 95.1%. In series [2], the “10 days Relative Purity (%)” value stood at 96.74%, the “15 days Purity (%)” value turned out to be 94.1% and the “15 days Relative Purity (%)” value stood at 95.73%.
With “HdAEGTFTSDL SKQMEEEAVR LFIEWLVKGG PSSGAPPPK* (H[dA]EGTFTSDLSKQMEEEAVRLFIEWLVKGGPSSGAPPPK(code ∗); reading uncertain; also: C-terminal modification (*)) [Sample 11]”, in series [3], the “0 day Purity (%)” value stood at 98.3%, the “5 days Purity (%)” value turned out to be 97.1%, the “5 days Relative Purity (%)” value is listed as 98.78% and the “10 days Purity (%)” value stood at 96.4%. Besides, in series [3], the “10 days Relative Purity (%)” value was 98.07%. In series [2], the “0 day Purity (%)” value came to 98.3%, the “5 days Purity (%)” value is listed as 96.7%, the “5 days Relative Purity (%)” value is given as 98.37% and the “10 days Purity (%)” value is on record as 95.9%. For the same substance, in series [2], the “10 days Relative Purity (%)” value is given as 97.56%, the “15 days Purity (%)” value was determined as 94.8% and the “15 days Relative Purity (%)” value stood at 96.44%.
On to “HdAEGTFTSDL SKQNleEEEAVR LFIEWLKQGG PSSGAPPPS-NH2 [Sample 3]”, for which, in series [1], the “Purity (%) 0 day” value is on record as 98.9%, the “Purity (%) 5th day” value amounted to 98.8%, the “Purity (%) 10th day” value worked out at 98.8% and the “Purity (%) 15th day” value is 98.8%. In addition, in series [3], the “0 day Purity (%)” value is reported as 98.9%, the “5 days Purity (%)” value is given as 98.6%, the “5 days Relative Purity (%)” value worked out at 99.70% and the “10 days Purity (%)” value was 98.5%. Moreover, the “10 days Relative Purity (%)” value in series [3] is listed as 99.60%. In addition, in series [2], the “0 day Purity (%)” value is recorded as 98.9%, the “5 days Purity (%)” value is given as 98.7%, the “5 days Relative Purity (%)” value came out at 99.80% and the “10 days Purity (%)” value amounted to 98.7%. Further, in series [2], the “10 days Relative Purity (%)” value came to 99.80%, the “15 days Purity (%)” value worked out at 98.6% and the “15 days Relative Purity (%)” value amounted to 99.70%.
Turning to “HdAEGTFTTSDL SKQNleEEEAVR LFIEWLKQGG PSSGAPPPC(AM) [Sample 9-2]”, in series [3], the “0 day Purity (%)” value came out at 99.0%, the “5 days Purity (%)” value was 98.8%, the “5 days Relative Purity (%)” value is 99.80% and the “10 days Purity (%)” value came to 98.7%. For the same substance, the “10 days Relative Purity (%)” value in series [3] was 99.70%. Also, in series [2], the “0 day Purity (%)” value was 99.0%, the “5 days Purity (%)” value is reported as 98.9%, the “5 days Relative Purity (%)” value turned out to be 99.90% and the “10 days Purity (%)” value was 98.8%. Moreover, in series [2], the “10 days Relative Purity (%)” value amounted to 99.80%, the “15 days Purity (%)” value is 98.8% and the “15 days Relative Purity (%)” value was 99.80%.
